The text below walks through data of the nanobody polyreactivity screen of Harvey et al. (2022).

This data set in a line: yeast display, Sf9 membrane polyspecificity reagent, FACS + sequencing; frameworks hold sequencing errors. A digest of the protocol: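 Synthetic nanobody libraries on Saccharomyces cerevisiae BJ5465 were galactose-induced for 36–48 hours, stained 1 hour at 4 °C with 10% biotinylated, detergent-solubilized Sf9 membrane reagent and enriched on streptavidin microbeads. FACS then separated cells into low and high (top ~1%) gates by anti-HA (expression) and streptavidin (reagent binding) fluorescence. Genes were colony-PCR amplified, MiSeq 2 × 250 sequenced and CDR-length filtered. A clone's polyreactivity label is that of its gate of origin.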
For “QVQLVESGGGLVQAGGSLRLTCAASGFTFTGNAMGWYRQAPGKEREFVAAISWSGGSTYYADSVKGRFTISRDNAKNTVYLQMNSLKPEDTAVYYCNKYRPYGRIYHLAYGRDYWGQGTQVTVSS”, the “polyreactivity (PSR sort gate)” value is on record as “high polyreactivity”.
For the sequence “QVQLVESGGGLVQAGGSLRLRCAASGFTFGRYAMGGYRQAPGKERELVAGITSGGSTYYADSVKGRFTISLDNAKNTVYLQMNSLKPEDTAVYYCITKVISRTSERRGNGFTRYDYWGQGTQVTVSS”, the “polyreactivity (PSR sort gate)” value is “low polyreactivity”.
With “QVQLVESGGGLVQAGGSLRLSCAASGYIFVVNAMGLDRQAPGKERELVAAIDWGGGSTYADSVKGRFTISRDNAKNTVYLQMNSLKPEDTAVYYCAADLWPYPNDYWGQGTQVTVSS”, the “polyreactivity (PSR sort gate)” value is on record as “low polyreactivity”.
As for “QVQLVQSGGGLVQAGGSLRLSCAASQNAMGWYRQAPGKERELVAAISKGGGRTYYADSVKGRFTISRDNAKNTVYLQMNSLKPEDTAVYYCNARYYSSQDADRHEYWGQGTQVTVSS”, the “polyreactivity (PSR sort gate)” value is listed as “high polyreactivity”.
As to “QVQLVESGGGLVQAGGSLRLSCSASGRIFSPYAMGWYRQAPGKERELVAAISWRGSSTYYADSVKGRFTISPDNAKNTVYLQMNSLKPEDTAVYYCAAPSSKYWGQGTQVTVSS”, the “polyreactivity (PSR sort gate)” value was “low polyreactivity”.
Take “QVQLVESGGGLVQAGGSLRISCAASGRIFSEYAMGWYRQAPGKERELVATITWTGGSTTYADSVKGRFTISRDNAKNTVYLQINSLKPEDTAVYYCAADATRLRTRYKRDYWGQGTQVTVSS”: the “polyreactivity (PSR sort gate)” value is given as “high polyreactivity”.
Take “QVQLVESGGGLVQAGGSLRLSCAASGSTFTFNAMGWYRKAPGKERELVAAISGSDVTTYYADSVKGRFTISRDNAKNSVYLQMNSLKPEDTAVYYCAAESYVTTVTGPHTGDYWGQGTQVTVSS”: the “polyreactivity (PSR sort gate)” value is on record as “low polyreactivity”.
As to “QGQLVESGGGLVQAGGSLRLSCAAYGSIYRNYAMGSYRQAPGKEREFVAAITTRGGRTYYADSVKGRFTISRDNAKNPVYLQINSLKPEDTAVYYCAARSYSEYNYWGQGTLVTVSS”, the “polyreactivity (PSR sort gate)” value is “high polyreactivity”.
“QVELVESAGGLVQAGGSLRLICAASGLTFDAYAMGWYRQAPGKERELVAAISSGGNTYYADSVKWRFTISRDNAKNTVYLQMNSLKPEDTAVYYCAATFIQVVVNVQLYDYDYWGQGTQVTVSS”: the “polyreactivity (PSR sort gate)” value was “low polyreactivity”.
For “QVQLVESGGGLVQAGGSLRLSCAASRFIFSVYTMGSYIQAPGKERELVAAISSGPSTTYADSVKGRFTISRDNAKNTVYLQMNSLKPEDTAVYYCARRDGTTQALFGYDYWGLGTQVTVSS”, the “polyreactivity (PSR sort gate)” value is “low polyreactivity”.
Consider “QVQLVESGGGLVQAGGSLRLSCAASGNIFTKYAMGWYRPAPGKERELVAAITWSGGSTYYADSVKGRFTISRDNAKNTVYLRMNSLKPEDTAVYYCATAHGFRRDKPYDYWGQGTQVTVSS”, for which the “polyreactivity (PSR sort gate)” value is listed as “high polyreactivity”.
Regarding “QVQLVESGGGLVQAGGSLRLSCAASGRTFFSYTMGWYRPAPGKERELFAAIYDSDGRTYYADSVKVRFTISRDNAKNTVYLQMYSLKPEDTAVYYCAAVPDKYWSRVRRYLFEHNYWGQGTKVTVSS”, the “polyreactivity (PSR sort gate)” value is “low polyreactivity”.
“QVQLVESGGGLVQAGGSLRLSSAASGFILGYNTMGWYRQAPGKESELVAAINLSGASTYYADSVKGRFTISRDNAKNTVYLQMNSLKPEDTAVYYCGVRFYSGPGGYPTTRYYYWGQGTQVTVSS”: the “polyreactivity (PSR sort gate)” value is “high polyreactivity”.
Take “QVQLVESGGGLVQAGGILRLSCAASGRTFRIYAMGRYRPAPAKVREFVAGITRSDGSTYYADSVKGRFTISRDNAKNTVSFQMNSLKPVDTEVYYCYVEPYSHYRRTEDYWGQGTEVTVSS”: the “polyreactivity (PSR sort gate)” value is given as “high polyreactivity”.
As to “QEQLQESGSGLVQAGGSLRLSCAASGNIFRDWVMGWYRQAPGKERELVAAISPGAITYYADSVKGRFTISRDNAKNTVYLQTNSLKPEDTEVYYCAAYYIVEYLHGYWGQGTRVTVSS”, the “polyreactivity (PSR sort gate)” value is given as “low polyreactivity”.
The value for “QVQLVQSGGGLVHAGGSLRLSCAASGRIFGINAMGWYIQAPGKERELVAAINWSGGSTYYADSVKGRFTISRDNAKNTVYLQMNSLKPEDTAVYYCADQKYQRVGYWGQGTQVTVSS” was “high polyreactivity”; that for “QVQLVESGGGLVQAGGSLRLSCAASGGSFGMNAMGWYRKAPGKERELVASINANGGSTYYADSVKGRFTISRDNAKNTVYLQMNSLKPEDTAVYYCAVVVTRYNHNEYNSWGQGTQVTVSS” was “low polyreactivity”; that for “QVQLVESGGGLVQAGGSLRLRCAASGFIFGPNAMGWYRQAPGKEREFDAAINWSGGTTYYADSVKGRFTISRDNAKNTVYLQMNSLKPEDTAVYYCAASLYSDVAAVATYGYYWGQGTQVTVSS” was “low polyreactivity”.
The value for “QVQLVESGGGLVQAGGSLRLSCAASGSTFSTNAMGWYRQAPGKERELVAAISYSGGSTYYADSVKGRFTISRDNAKNTVYLQMISLKPEDTAVYYCAADGYYYNSGGRYYEFYYWGQGTQVTVSS” was “low polyreactivity”; that for “QVPLVESGGGLVQAGGRLRLRCAASAFTFDSYAMGWNRQAPGKERELVAAITWSGGSTYSADSVKGRFTISRDNAKNTVYLQMNSLQPEDTAVYYCNVYRYDGDYWGQGTQVPVSS” was “high polyreactivity”; that for “QVQLVESGGGLVQAGGSLRLSCAASGRTFQSYAMGWYRQAPGKERELVAAITITGGRTYYADSVKGRFTISRDNAKNTVYLQMNSLKPEDTAVYYCADYDYWGQGTQVTVSS” was “low polyreactivity”.
Take “QVQLVESGGGLVQAGGSLRLSCAASGLIFAKYAMGWYRQAPGKERELVAAITSSGAGTYYADSVKGRFTISRDNAKNTVYLQMNCLKPEDTAVYYCATGPDPKYDYWGQGTQVTVSS”: the “polyreactivity (PSR sort gate)” value was “high polyreactivity”.
On to “QVQLVESGGGLVQAGGSLRLSCAASGSTFEDNAMGWYRQAPGKERELVAAITTGGGSTYYADSVKGRFTISRDNAKNTVYLQMNSLKPEDTAVYYCAVYRYYGFSLWYDYWGQGTLVTVSS”, for which the “polyreactivity (PSR sort gate)” value was “low polyreactivity”.
Regarding “QVQLVESGGGLVQAGGSLRLSCAASGSTFGIYARGWYIQAPGKEWDLVAAITWIGSDTYYADSVKGRFTISRDNAKNTVYLQMISLKPEDTAVYYCNAVKLLGTRGYGYWGQGTQVTVSS”, the “polyreactivity (PSR sort gate)” value is reported as “high polyreactivity”.
As for “QVQLVESGGGLVQAGGSLRLSCAASGRTFALNAMGWYRQAPGKERELVAAISWSSGRTYYADSVKGRFTISRDNAKNTVYLQMNSLKPEDTAVYYCAALVAHKGDYWGQGTQVTVSS”, the “polyreactivity (PSR sort gate)” value was “high polyreactivity”.
With “QVQLQESGGGLVQAGGSLRLWCAASRNISGSSDLGWYHQAPGKEREFVASITSGGTTYYADSVKGRFTISRDNAKNTVYLQMNSLKPEDTAVYYCAVGDPADAEFGYWGQGTQVTVSS”, the “polyreactivity (PSR sort gate)” value is listed as “low polyreactivity”.
For “QVQLQESGGGLVQAGGSLRLSCAASGSISHYIFMGWYRQAPGKQREFVAGIGYGGTTNYADSVKGRFTISRDNAKNTVYLQRNSLKPEDTGMYYCAAREATEFYLYYWGQGTQVTVSS”, the “polyreactivity (PSR sort gate)” value is recorded as “low polyreactivity”.
In the case of “QVQLVESGGGLVQAGGSLRLSCAASGFIFRYYAMGWYIQAPGKERELVAAITISGTRTYYADSVKGRFTISRDNAKNTVYLQMNSLKPEDTAVYYCAAYTSVRPKLDYWGQGTQVTVSS” it was “high polyreactivity”.
As to “QVQLVESGGGLVQAGGSLRLSCAASGFTFSGYDMGWYRPAPGKERELVAGISSGGVSTTYADSVKGRFTISRDNAKNTVYLQMNSLKPEDTAVYYCNAEWTSFDWGQGTQVTVSS”, the “polyreactivity (PSR sort gate)” value is given as “low polyreactivity”.
Regarding “QVQLVESGGGLVHAGGSLRLSCDASGITFGPYGMGWYRQAHGKEREFVATITTIGGITYYADSVKGRFTISRDNAKNTFYLQMNSLKPEDTAVYYCAAPWFHGYDALVDYWGQGTQVTVSS”, the “polyreactivity (PSR sort gate)” value is recorded as “low polyreactivity”.
